From patent publication US20140018290A1 (Novo Nordisk, published 2014)

T1: human Leptin receptor (human, UniProt P48357 22-1165)
T1 construct: whole, on cells; also called hLeptin receptor
T1 sequence (looked up): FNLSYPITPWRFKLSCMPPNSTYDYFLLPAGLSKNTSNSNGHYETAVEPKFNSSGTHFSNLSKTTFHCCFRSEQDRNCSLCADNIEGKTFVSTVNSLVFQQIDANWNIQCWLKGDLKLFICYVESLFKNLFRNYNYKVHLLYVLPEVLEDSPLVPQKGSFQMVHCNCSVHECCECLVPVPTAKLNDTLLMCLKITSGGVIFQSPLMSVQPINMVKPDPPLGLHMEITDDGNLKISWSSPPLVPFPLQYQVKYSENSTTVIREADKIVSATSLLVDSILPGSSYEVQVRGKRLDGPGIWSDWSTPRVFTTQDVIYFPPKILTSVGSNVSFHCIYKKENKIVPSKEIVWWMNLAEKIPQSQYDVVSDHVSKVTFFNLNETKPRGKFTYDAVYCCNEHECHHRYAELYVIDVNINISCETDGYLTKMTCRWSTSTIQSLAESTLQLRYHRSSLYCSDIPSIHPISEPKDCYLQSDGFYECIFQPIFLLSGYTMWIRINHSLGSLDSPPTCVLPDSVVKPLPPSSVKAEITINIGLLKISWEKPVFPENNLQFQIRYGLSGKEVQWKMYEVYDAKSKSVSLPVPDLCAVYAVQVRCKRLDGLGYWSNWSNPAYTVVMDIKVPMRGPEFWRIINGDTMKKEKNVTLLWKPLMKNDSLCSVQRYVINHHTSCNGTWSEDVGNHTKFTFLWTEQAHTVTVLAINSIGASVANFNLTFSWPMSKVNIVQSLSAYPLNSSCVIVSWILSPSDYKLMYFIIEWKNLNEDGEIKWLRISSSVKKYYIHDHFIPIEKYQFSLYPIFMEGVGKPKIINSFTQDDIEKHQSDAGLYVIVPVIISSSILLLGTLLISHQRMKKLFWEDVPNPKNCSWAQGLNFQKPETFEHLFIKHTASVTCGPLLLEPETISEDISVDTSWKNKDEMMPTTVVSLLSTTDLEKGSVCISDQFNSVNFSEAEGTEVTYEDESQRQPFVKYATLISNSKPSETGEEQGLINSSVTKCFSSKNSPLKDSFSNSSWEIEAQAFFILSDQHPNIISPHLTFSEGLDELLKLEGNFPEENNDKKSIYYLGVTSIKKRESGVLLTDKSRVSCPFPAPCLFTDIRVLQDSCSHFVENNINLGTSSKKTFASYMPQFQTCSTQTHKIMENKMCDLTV

B1: Compound C (protracted rat Leptin: rat Leptin alkylated with compound 2 at the N-terminal amino group) (ligand)
chain: VPIHKVQDDTKTLIKTIVTRINDISHTQSVSARQRVTGLDFIPGLHPILSLSKMDQTLAVYQQILTSLPSQNVLQIAHDLENLRDLLHLLAFSKSCSLPQTRGLQKPESLDGVLEASLYSTEVVALSRLQGSLQDILQQLDLSPEC
modifications: N-terminal amino group alkylated with compound 2 (protractor group: C18 diacid (17-carboxyheptadecanoyl)-gamma-Glu-OEG-OEG-4-formylbenzylamide, attached by reductive alkylation)
notes: also called protracted rLeptin
B2: Rat Leptin (ligand)
chain: B1 chain
notes: also called rLeptin; wt rat Leptin
B3: Compound A (protracted rat Leptin: rat Leptin alkylated with compound 1 at the N-terminal amino group) (ligand)
chain: B1 chain
modifications: N-terminal amino group alkylated with compound 1 (protractor group with 16-(tetrazol-5-yl)hexadecanoylsulfamoyl-butyryl, two Glu, OEG, Gly and an aldehyde-derived anchor)
notes: Mw 17190 g/mol

Tests used:
human Leptin receptor [1] = target: T1, human Leptin receptor; test: SPA, displacement of human [125I]-Leptin from human Leptin receptor membranes, 2% HSA added; mean, n=3
Procedure: (§1) Human Leptin receptor SPA binding assay were performed in white 96-well plates in a total volume of 200 μl per well. Wheat germ agglutinin coated beads containing scintillation liquid were reconstituted in binding buffer (50 mM Hepes, 1 mM CaCl₂, 5 mM MgCl₂, 0.02% Tween 20, 0.25% Ovalbumin pH 7.4) and mixed with membrane preparation to give final concentration of 1 mg beads and 10 μg total protein per well. 50.000 cpm per well of radio ligand human [¹²⁵I]-Leptin was added corresponding to a concentration of approximately […]. Human serum albumin was added to a final concentration of 2% when binding in presence of albumin was investigated. Freeze dried Leptin analogues were dissolved in PBS to 100 μM and serial diluted in binding buffer to give a final assay concentration ranging from 100 nM to […]. The plate was sealed and incubated at +25° C. for 2 hours in a plate shaker set at 400 rpm and thereafter centrifuged at 1500 rpm for 10 minutes prior to reading of luminescence on a microplate scintillation and luminescence counter. Displacement of radioligand was measured as reduction in luminescence and IC₅₀ values were calculated by nonlinear regression analysis of sigmoidal dose-response curves.

human Leptin receptor [2] = target: T1, human Leptin receptor; test: cell-based or functional assay
human Leptin receptor [3] = target: T1, human Leptin receptor; test: SPA, displacement of human [125I]-Leptin from human Leptin receptor membranes, 0% HSA added; mean, n=3
Procedure: as §1

human Leptin receptor [4] = target: T1, human Leptin receptor; test: whole cell binding, displacement of [125I]-hLeptin on HEK293 cells expressing human Leptin receptor; mean, n=4
Procedure: HEK293 cells stably expressing the human Leptin receptor were seeded in poly-D-lysine coated 24 well plates at 200.000 cells per well and cultured for two days in alpha-minimum essential medium (MEM), cell culture media containing 10% heat inactivated fetal calf serum (FCS), 1% penicillin-streptomycin (P/S), 1 mg/ml Zeocin and 1 mg/ml G418 antibiotic at +37° C. in a humidified atmosphere with 5% CO₂. Prior to the experiment, cells were rinsed in pure MEM medium, followed by incubation in Leptin analogues at 10,3,1,0.3,0.1,0.03 and 0.01 nM concentrations for 45 minutes in MEM containing 0.005% polysorbate 20 and 0.1% ovalbumin and [¹²⁵I]-hLeptin 100000 cpm. The cells were washed three times in ice cold MEM and were lysed in lysis buffer containing 1.0% nonidet P-40, 0.5% triton X-100 (C₁₄H₂₂O(C₂H₄O)ₙ) and 1M sodium hydroxide. Samples are transferred to plastic

| Binder | IC50 (human Leptin receptor [1]) [pM] | Luciferase assay, Mean EC50 nM, 0% HSA added (human Leptin receptor [2]) [nM] | Luciferase assay, Mean IC50 nM, 0.7% HSA added (human Leptin receptor [2]) [nM] | IC50 (human Leptin receptor [3]) [pM] | IC50 (human Leptin receptor [4]) [pM] |
| --- | --- | --- | --- | --- | --- |
| B1 | 5930 | 0.24 | 0.42 | 380 |  |
| B2 | 880 | 0.41 | 0.52 | 490 | 1010 |
| B3 | 37100 | 1.57 | 1.92 | 1900 | 1760 |
